Measurements: patent publication US20230212319A1, “NOVEL ANTIGEN BINDING DOMAINS AND SYNTHETIC ANTIGEN RECEPTORS INCORPORATING THE SAME” (University of Southern California, priority 2020, published 2023)

Key:
[1] = system: Raji cells expressing a membrane anchored scFv targeting Dsg3; experiment: JNG assay, co-culture with Raji cells expressing a membrane anchored scFv targeting Dsg3; type: cell-based; details: compared to parental Raji cells
Protocol: Cellular supernatant is collected and assayed for the induction of cytokines (e.g., IL2).
JNG (Jurkat cells expressing EGFP under an NFAT promoter) were infected with lentiviral vectors encoding different single chain and multi-chain SARs by spinfection in the presence of 8 µg/ml of Polybrene® (Sigma, Catalog no. H9268). The Jurkat-NFAT-GFP cells are engineered in such a way that the IL-2 promoter, which carries NFAT binding sites, is cloned upstream of the GFP gene. These cells have been used to study signaling via TCR and CAR. The different SARs were stably expressed in Jurkat NFAT-GFP cells by lentiviral mediated gene transfer, followed by selection with puromycin or blasticidin. No drug selection was used in case the construct lacked an antibiotic resistance gene. […] GFP expression was monitored by FACS analysis. […] The structure of different constructs can be determined based on their names. […] The sequence of the other constructs in the table can be similarly determined from their names and by referring to the different Tables of this disclosure that provide the names and SEQ ID NO of the different modules. Alternatively, the composition and modular architecture of the different SAR constructs can be determined from their sequences by bioinformatics tools, including using nucleic acid and amino acids homology searches. […]

HepG2 cells = type: cell-based
target cells = experiment: Xenograft model in immunodeficient mice; type: in vivo; details: TRAC-targeted T cells, versus construct SEQ ID NO: 23329
Source text: Animal models can also be used to measure SAR activity. For example, xenograft model using human cancer associated antigen described herein-specific SAR^+ T cells to treat a primary human pre-B-ALL in immunodeficient mice can be used. Dose dependent SAR treatment response can be evaluated. See, e.g., Milone et al., Molecular Therapy 17(S): 1453-1464 (2009). Assessment of cell proliferation and cytokine production has been previously described, e.g., at Milone et al., Molecular Therapy 17(S): 1453-1464 (2009). Cytotoxicity can be assessed by a standard ^51Cr-release assay or Matador assay. Imaging technologies can be used to evaluate specific trafficking and proliferation of SIRs in tumor-bearing animal models.
The cells expressing the SAR constructs are exposed to RAJI and L363 target cells and tested in functional assays as described above. […] It is also observed that co-expression of the constant chains of both TCRγ and TCRδ can also rescue the expresson of SARs on TFP backbone in αβ T cells in which the expression of endogeneous TCRα and/or TCRβ constant chains has been eliminated by insertion of the SAR expresson cassette at the endogenous TRAC or/and TRBC loci. Exemplary constructs to express TCRγ and TCRδ chains are provided in SEQ ID NO: 23333 and 23334, respectively.

[2] = system: target cell lines expressing a non-secretory form of a luciferase; experiment: Assay for cytotoxic activity (Matador assay, luciferase release); type: cell-based; details: TRAC-targeted T cells, versus construct SEQ ID NO: 23329
Protocol: Cell lines engineered to express luciferases (e.g., GLuc or NLuc) for measuring cytotoxicity of different constructs targeting different cell surface and intracellular antigens are provided in Table C-1. Cells were cultured at 37° C., in a 5% CO2 humidified incubator. The cell lines were obtained from ATCC, NIH AIDS reagent program or were available in the laboratory.
The generation of Chimeric antigen receptor (e.g., 2nd generation CARs, SIRs, Ab-TCR and TFP etc.), the generation and use of GGS-NLuc fusion proteins (Topanga and Malibu-Glo assays), and the generation and use of luciferase (e.g., GLuc) reporter cell lines for measurement of cellular cytotoxicity using the Matador assays have been described (PCT/US2017/024843, PCT/US2017/025602, PCT/US2017/052344, PCT/US2017/064379 and PCT/US2018/53247).
(C) Assay for Cytotoxic Activity in vitro and in vivo: The uninfected T cells or those expressing a control vector or SAR are cocultured with the target cell lines expressing a non-secretory form of a luciferase (such as GLuc, NLuc, Turboluc 16 etc.) for 4-96 hours and induction of cell lysis examined by measuring the luciferase activity as described in PCT/US17/52344.

B1: CD8SP-Dsg3-EC1-EC2-L693-IgCL-TCRb-wt2-opt-6MD-F-P2A-IgHSP-CD20-vHH2-HCD25-G4S-CD19-hu-mROO5-1-vH-IgG1-CH1-TCRa-wt2-opt-6MD-F-F2A-PAC (protein)
chain: MALPVTALLLPLALLLHAARPACEWVKFAKPCREGEDNSKRNPIAKITSDYQATQKITYRISGVGIDQPPFGIFVVDKNTGDINITAIVDREETPSFLITCRALNAQGLDVEKPLILTVKILDINDNPPVFSQQIFMGEIEENSASNSLVMILNATDADEPNHLNSKIAFKIVSQEPAGTPMFLLSRNTGEVRTLTNSLDREQASSYRLVVSGADKDGEGLSTQCECNIKVKDVNDNFPMFRDSLEGQPKANPTVTLFPPSSEELQANKATLVCLISDFYPGAVTVAWKADGSPVKAGVETTKPSKQSNNKYAASSYLSLTPEQWKSHRSYSCQVTHEGSTVEKTVAPTECSGRADCGFTSESYQQGVLSATILYEILLGKATLYAVLVSALVLMAMVKRKDSRGRAKRSGSGATNFSLLKQAGDVEENPGPTSATMDWIWRILFLVGAATGAHSGPQVQLQESGGGLAQAGGSLRLSCAASGRTFSMGWFRQAPGKEREFVAAITYSGGSPYYASSVRGRFTISRDNAKNTVYLQMNSLKPEDTAVYYCAANPTYGSDWNAENWGQGTQVTVSSGSGGGGSGGGGSGGGGSFEQVQLQQPGAELVKPGASVKMSCKASGYAFSSYWINWMKQKPGQGLEWIGQIYPGDGDTNYNGKFKGRATLTADTSSSTAYMQLSSLTSEDSAVYFCARSITTVVGCAMDYWGQGTSVTVSSTRASTKGPSVFPLAPSSKSTSGGTAALGCLVKDYFPEPVTVSWNSGALTSGVHTFPAVLQSSGLYSLSSVVTVPSSSLGTQTYICNVNHKPSNTKVDKRVEPKSCIPEDTFFPSPESSCDVKLVEKSFETDTNLNFQNLSVIGFRILLLKVAGFNLLMTLRLWSSRAKRSGSGVKQTLNFDLLKLAGDVESNPGPSRGHMTEYKPTVRLATRDDVPRAVRTLAAAFADYPATRHTVDPDRHIERVTELQELFLTRVGLDIGKVWVADDGAAVAVWTTPESVEAGAVFAEIGPRMAELSGSRLAAQQQMEGLLAPHRPKEPAWFLATVGVSPDHQGKGLGSAVVLPGVEAAERAGVPAFLETSAPRNLPFYERLGFTVTADVEVPEGPRTWCMTRKPGA
B1 was tested, and the GFP induction [1] was “increased GFP induction”.

B2: 22257 (protein)
chain: MGPRLLFWALLCLLGTGPVEAGVTQSPTHLIKTRGQQATLRCSPISGHTSVYWYQQALGLGLQFLLWYDEGEERNRGNFPPRFSGRQFPNYSSELNVNALELEDSALYLCASSLGGPRGLAGLRGDEQFFGPGTRLTVLEGTGGGGSGGGEFDIQMTQSPSSLSASVGDRVTITCKASDHINNWLAWYQQKPGQAPKLLIYGATTLETGVPSRFSGSGSGTDYTLTISSLQPEDFATYYCQQSWNTPWTFGQGTKLEIKRLEGQPKANPTVTLFPPSSEELQANKATLVCLISDFYPGAVTVAWKADGSPVKAGVETTKPSKQSNNKYAASSYLSLTPEQWKSHRSYSCQVTHEGSTVEKTVAPTECSGRADCGFTSESYQQGVLSATILYEILLGKATLYAVLVSALVLMAMVKRKDSRGRAKRSGSGATNFSLLKQAGDVEENPGPTSATMDWIWRILFLVGAATGAHSGPQVQLQESGGGLAQAGGSLRLSCAASGRTFSMGWFRQAPGKEREFVAAITYSGGSPYYASSVRGRFTISRDNAKNTVYLQMNSLKPEDTAVYYCAANPTYGSDWNAENWGQGTQVTVSSGSGGGGSGGGGSGGGGSFEQVQLQQPGAELVKPGASVKMSCKASGYAFSSYWINWMKQKPGQGLEWIGQIYPGDGDTNYNGKFKGRATLTADTSSSTAYMQLSSLTSEDSAVYFCARSITTVVGCAMDYWGQGTSVTVSSTRASTKGPSVFPLAPSSKSTSGGTAALGCLVKDYFPEPVTVSWNSGALTSGVHTFPAVLQSSGLYSLSSVVTVPSSSLGTQTYICNVNHKPSNTKVDKRVEPKSCIPEDTFFPSPESSCDVKLVEKSFETDTNLNFQNLSVIGFRILLLKVAGFNLLMTLRLWSSRAKRSGSGVKQTLNFDLLKLAGDVESNPGPSRGHMTEYKPTVRLATRDDVPRAVRTLAAAFADYPATRHTVDPDRHIERVTELQELFLTRVGLDIGKVWVADDGAAVAVWTTPESVEAGAVFAEIGPRMAELSGSRLAAQQQMEGLLAPHRPKEPAWFLATVGVSPDHQGKGLGSAVVLPGVEAAERAGVPAFLETSAPRNLPFYERLGFTVTADVEVPEGPRTWCMTRKPGA
For B2, the “NFAT-GFP ASSAY: HepG2” value (HepG2 cells) was “RAJI (2+), HepG2 (-/^+)”.

B3: SEQ ID NO: 23330: targeting construct coexpressing a TCRα constant chain with a SAR on TFP backbone targeting BCMA and CD22, directed to the TRAC locus (protein)
chain: FKIPIEELEDRVFVNCNTSITWVEGTVGTLLSDITRLDLGKRILDPRGIYRCNGTDIYKDKESTVQVHYRMCQSCVELDPATVA
B3 was tested, and the “in vivo anti-tumor activity against the target cells” value (target cells) was “greater” and the cytotoxicity [2] was “greater”.
